Experimental data as given in patent publication US20130086703.

Test system: full-length human Keratin 6

Kgp
enzymatic degradation products detected by mass spectrometry (on spot profiling): peptides consisting of the amino acid sequences shown by SEQ ID NOs: 4 and 5 (peptides 6 and 7) were newly identified as Kgp degradation products of human Keratin 6
